Source: US20030108924A1

Biological target: KCNQ1 cardiac potassium channel (KvLQT1), full-length (UniProt P51787)
Assay: cell-based or functional assay

increase of current after the 10th pulse of a depolarizing pulse train: 1.9 fold
time constant for activation at +40 mV (first time constant): 368 ms
time constant for activation at +40 mV (second time constant): 2150 ms
time constant of deactivation (tail currents at -50 mV after activation at +60 mV): 295 ms
voltage-dependence of activation, V1/2: 20.6 mV
Substance: KCNE1-D85N (cardiac potassium channel minK subunit polypeptide with asparagine at amino acid 85)
